Experimental findings from paper PMC3653949, “Dissection of Agonistic and Blocking Effects of CD200 Receptor Antibodies” (PLoS ONE, 2013) are described below.

This test concerns the target T1, CD200R(1)-rCD4d3+4 (extracellular domains of mouse CD200R allele 1 fused to rat CD4 domains 3 and 4) (mouse, UniProt Q9ES57 26-238, biotin at the biotinylation site).
T1 construct: mouse CD200R, allele CD200R(1) of C57BL/6 mice, the two extracellular domains; also called mCD200R; CD200R(1) rCD4d3+d4; source: 293T cells, transfected (pEF-BOS), tissue culture supernatant concentrated and biotinylated
T1 sequence (looked up): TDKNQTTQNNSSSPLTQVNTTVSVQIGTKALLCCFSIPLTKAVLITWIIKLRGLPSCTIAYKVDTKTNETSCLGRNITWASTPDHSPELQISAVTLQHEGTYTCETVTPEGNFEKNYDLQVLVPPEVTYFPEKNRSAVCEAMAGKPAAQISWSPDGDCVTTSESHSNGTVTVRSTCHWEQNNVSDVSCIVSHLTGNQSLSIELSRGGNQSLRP
In words: SPR; biotinylated CD200R(1)-rCD4d3+4, CD200R(2)-rCD4d3+4 and rCD4d3+4 from tissue culture supernatants immobilized on streptavidin coupled CM5 chip (726, 704, 681 RU); purified, gel filtered CD200-rCD4d3+4 (0.75 µM) passed over; BIAcore 3000, 25°C. The conditions noted are these: both partners purified.

B1: mouse CD200-rCD4d3+4 (extracellular domains of mouse CD200 fused to rat CD4 domains 3 and 4) (ligand, UniProt O54901 31-232, looked up)
chain: QVEVVTQDERKALHTTASLRCSLKTSQEPLIVTWQKKKAVSPENMVTYSKTHGVVIQPAYKDRINVTELGLWNSSITFWNTTLEDEGCYMCLFNTFGSQKVSGTACLTLYVQPIVHLHYNYFEDHLNITCSATARPAPAISWKGTGTGIENSTESHFHSNGTTSVTSILRVKDPKTQVGKEVICQVLYLGNVIDYKQSLDKG
modifications: biotin at the biotinylation site (form put on streptavidin coated fluorescent beads)
notes: mouse CD200, extracellular domains; also called soluble CD200; soluble purified CD200; source: 293T cells, transfected (pEF-BOS), tissue culture supernatant concentrated and biotinylated (on beads); purified and gel filtered (SPR)
B1: the binding result is on record as “binds”.
